Test results taken from the DeepSol protein solubility set.

Assay: soluble on expression in E. coli; label from the status in PepcDB or PDB records
In the case of “MHGSKLPLTVWFWAAYLMATHSNGISARQMGRHLGLGSYKSAWLLCAKLRGAMVNLARALLSGLVEIDETQISYRTKDNPVAGGGGRSPEGKMQVVVAVEVIDNAPGRLRLGVIDDASSASLHPFIKASVASGATLKTDGWSAYPGAPGYKHEPHVVGKMAAHIVLPWVHRVISNLKTWALGVYHGLRRQHLQSYLNEFVFRFNCRRTPHAAFRTLLGIGLAIQPVTYNMLIAPEAQGLEHHHHHH”, the “soluble on expression in E. coli” value was “not soluble”. For “MTQQGAALQNYNNELVKCIEELCQKREELCRQIQQEEDEKQRLQNEVRQLTEKLARVNENLARKIASRNEFDRTIAETEAAYLKILESSQTLLSVLKREAGNLTKATASDQKSSGGKDS”, the “soluble on expression in E. coli” value was “not soluble”. In the case of “MGSDKIHHHHHHMKIQQPSVLIPDPCNNPLAYYAIRCLKQANSEFNINVIVSSGQTLDDNEWLYFYKYSAYIDNLVVSANSMNSLEYLDEVIRIIENQGINLIFPASEEGFKFVSKYRYKLSKFCRIVALPSEENLDAAFDKWKLHLLLQKHNIPTPETVLLKEIENISQFNYPVILKPVDGSGGKNIQKFDSLEEENFQAICNYPNDVYIVQKYVPGHDIGCSVLCQDGQVLAYTIQQQLGLTEGFTPKIDKLKFVHDSAVIDIVTKTMNVLKWSGIANLDLRYNSQTGQINVIEINPRFWQSLMGSLSVGVNFPYILYLLSNNISFERISYKEQYYAKFHRFIQDAFNGSLEYSLSDTNVKYFLSDPSGILHFLFYKLMKQKLFQNMKSIFSLQSQKIQNVK”, the “soluble on expression in E. coli” value was “not soluble”. For “MGSDKIHHHHHHMREGSIVKLESLINQKYSNLNQTEKEILAFIIENRDFVRKASLSEVAEKSLFSKSAIFRCCKKIGLTGFSQLRYVLTDEKDSEQDSLISVDYLAQTVKSMLWTVNQFKSTNADDIYATLAAAGTIYIYSTGWQQQIMAQQLQRDLYLIGKFAFVFPTGHDEMQLSSTKIKPGDAVIVISYKGMNATIVQLVNNLKLNGVRIVSFTSFRQNRLAQAANFNLYYDIINKTVGIERKTERFFANLTLLIDIFSMGFANYLVAKEERDHEHGEYGQRKSK”, the “soluble on expression in E. coli” value was “not soluble”. With “MGSDKIHHHHHHMVQHLVDLLDTWLPSYQEDWVLAVLTQVEGSSYRKPGAIMLFHPMGKSLGMLSGGCLEADLRRHAQRAIQTQQVIQLTYDATDESDTSYQLGCGGIVNIMMVSLNKANNYLGLVSVHDALMRGDRGTYQLEIVADGVSSHQISGHFVEASSDAAPITLNTKTLKVTEQHKTLLQIPLRPPVHIGIFGGGLDAKPIAQMAQTMGWKVTIFDERTAYARTYDFPGCHIMKHPTPSISTDLLSGLDAAFIMSHNLQIDAKTLKTLQPLPLAYISLLGPVHRRDKVLDMAELSLKDFSGYFSAPAGLALGGELPGSVALSILSQCHGVLYNSKLTSLDSVML” the “soluble on expression in E. coli” value was “not soluble”. With “GMRNPSEDHMMRTPYQIVADHYAASDRHDPAAMMADIAPAIEWTEMAGFPCAGTYRSADEIVRNVFRRLGEEWDGYTFKLDALHDAGDTVIGVGRYSGTYRRTGKSFECRVAHVWRVDAGKIVHFEQFTDTLLVAQAMQP” the “soluble on expression in E. coli” value was “soluble”. For “LQELETAVAETGFSRFPVTGKDGSYLGYVHIKDVLDRFDHSSPDTIIHRSEIRPLIIVDAAGTMDEALQSMHSKSAHMAQVRDRGLLLGVITLEDLIEEYVGTFSDWTHEQS”, the “soluble on expression in E. coli” value was “not soluble”. With “MGSDKIHHHHHHMKIIQLEYFLAIVKYNSFTKAAQFLHISQPSLTATIKKMEADLGYDLFTRSTKDIKITEKGIQFYRYASELVQQYRSTMEKMYDLSVTSEPRIKIGTLESTNQWIANLIRKHHSDYPEQQYRLYEIHDKHQSIEQSLNFNIHLAITNEKITHEDIRSIPLYEESYILLAPKETFKNQNWVDVENLPLILPNKNSQVRKHLDDYFNRRNIRPNVVVETDRFESAVGFVHLGLGYAIIPRFYYQSFHTSNLEYKKIRPNLGRKIYINYHKKRKHSEQVHTFVQQCQDYLYGLLEAL” the “soluble on expression in E. coli” value was “not soluble”. In the case of “MSIIEDNKISFVIPTINEEKTIGSVIDGIHENFPNAEIILVDTNSTDKTKEIAKSKGATVIEEPRKGYGRAYQTGIPAAKGDIIVCMDGDGTYPTDIVKPLIEILILDKVDFISCDRITFRTSTNYTTLHYVGNMVLNLTIRILFKVRMVDSQSGMWIFRSELYKKMKNLGYGMSFSQNIKIEAVRHGVFIEIPIRYGVRITKPKLKTWHDGFHNLFALFIKRVSELEHHHHHH”, the “soluble on expression in E. coli” value was “soluble”. In the case of “MGKNDQYYAVARGKQVGIYRTWNECKTQIDGFQNARFKKFATEAEARKFVADNMSVPGSKPVTPAVSTSSATRKRTHEGTKFTEAKKMKTEEEVIDPEFANAPVVYTDGACSSNGTKNAKAGWGVYWGDDSEDNEFGPVYGAPTNNRGELIAVQKAIEKAIEKRLPKVVIKTDSNLLVQSMNIWIHGWKRKGWKTSTGSEVLNQDVLMKIDNLRQKLKVKFLHVRGHAGIDGNEKADELARKGAQMFIKRS”, the “soluble on expression in E. coli” value was “not soluble”. With “MVENSELRKAGLKVTLPRVKILQMLDSAEQRHMSAEDVYKALMEAGEDVGLATVYRVLTQFEAAGLVVRHNFDGGHAVFELADSGHHDHMVCVDTGEVIEFMDAEIEKRQKEIVRERGFELVDHNLVLYVRKKK” the “soluble on expression in E. coli” value was “not soluble”. In the case of “MGHHHHHHSHTRDELRAKALHIPFPVEKIINLPVVDFNEMMSKEQFNEAQLALIRDIRRRGKNKVAAQNCRKRKLENIVELEQDLDHLKDEKEKLLKEKGENDKSLHLLKKQLSTLYLEVFSMLRDEDGKPYSPSEYSLQQTRDGNVFLVPKSKK”, the “soluble on expression in E. coli” value was “soluble”. For “MQVFDLSVDGATTIDIGASTGGFTDVMLQNSAKLVFAVDVGTNQLAWKLRQDPRVVSMEQFNFRYAEKTDFEQEPSFASIDVSFISLSLILPALHRVLADQGQVVALVKPQFEAGREQIGKNGIIRDAKVHQNVLESVTAMAVEVGFSVLGLDFSPIQGGHGNIEFLAYLKKEKSASNQILAEIKEAVERAHSQFKNE”, the “soluble on expression in E. coli” value was “not soluble”. In the case of “MSRNQNHEEYQDDTRPLSIEEQRARLRQLIIMGKERGYITYSEINDALPDDMSDADQIDNIVSMISGLGIQVTEHAPDAEDILLSDNAAVTDDDAVEEAEAALSSADSEFGRTTDPVRMYMREMGQVDLLTREDEIIIAKKIENALKNMVQAISACPGSIAEILELIEKIRKDEIRVDEVVEAIIDPNEVLLNELGLGHLETTAPEKPSNDNSDENEDDEESEEDADEISAANLAELKQKVIGHFAQIEKDYKKMIGRLEKHHSRHKDYLAYRDAIANKLLEVRFATRQIDSLSSSLRGKVENIRKLEREIRDICLDRVHMERDYFIQNFLPEITNLEWIEEEIAKGRVWSDALDRFRHAILEKQTELADMEKETRISIEELKEINKNMVSSEKETAAAKQEMIQANLRLVISIAKKYTNRGLQFLDLIQEGNIGLMKAVDKFEYRRGYKFSTYATWWIRQAITRSIADQARTIRIPVHMIETINKMNRISRQHLQETGEEPDSAKLAELMQMPEDKIRKIMKIAKEPISMETPIGDDDDSHLGDFIEDANNVAPADAAMYTSLHEVTKEILESLTPREAKVLRMRFGIDMNTDHTLEEVGRQFDVTRERIRQIEAKALRKLRHPTRSDRLRSFLDSEDSKL”, the “soluble on expression in E. coli” value was “soluble”. For “MKKWMAGLFLAAAVLLCLMVPQQIQGASSYDKVLYFPLSRYPETGSHIRDAIAEGHPDICTIDRDGADKRREESLKGIPTKPGYDRDEWPMAVCEEGGAGADVRYVTPSDNRGAGSWVGNQMSSYPDGTRVLFIVQLEHHHHHH”, the “soluble on expression in E. coli” value was “soluble”. In the case of “MNPNFTTEHTWQGRHDPEDGQAGRRVHHIACPIQVGELANQEPGVALIGFECDAGVERNKGRTGAKHAPSLIKQALANLAWHHPIPIYDLGNIRCEGDELEQAQQECAQVIQQALPHARAIVLGGGHEIAWATFQGLAQHFLATGVKQPRIGIINFDAHFDLRTFESELAPVRPSSGTPFNQIHHFCQQQGWDFHYACLGVSRASNTPALFERADKLGVWYVEDKAFSPLSLKDHLTQLQHFIDDCDYLYLTIDLDVFPAASAPGVSAPAARGVSLEALAPYFDRILHYKNKLMIADIAEYNPSFDIDQHTARLAARLCWDIANAMAEQVQSIRHP”, the “soluble on expression in E. coli” value was “soluble”. In the case of “MPQDMSQFLQVFFEETEEHLATLELLLIGLDLDRPDSETLHGIFRAAHSIKGSSGMFGFDDITAVTHELETLLDRIRCGQMHLRPDMISSFLEARDVLQRLLDAHRSGRPDPGVPLLETVERLRGWLRVPEQEAAEEGFGLFDDAPARETADDDAFGFFDEGPGAPERAAAPEAFGLFDEAPGAPAASEAFGLFDEAPGSPPAEERAFGLFDGAPGSPAAPSAPAQAVAAPARGAVAPVRGDGESGSIRVSVEKIDSLINLVGELVITQAMLGQLGEQLDPSRHERLQHALAQLEHNTRDLQESVMSIRMLPINFIFSRFPRLVRDTATRLGKQVELHLHGEHTELDKSVIEKLSDPLTHIVRNSIDHGIETPAERLAAGKPASGTVKLAASHQGGSVVVEVSDDGRGLSRPRILAKARERNLPVHDGMSDAEVWQLVFMPGFSTAETVTELSGRGVGMDVVKRNIGAMGGRIDIDSAPGMGTRIGIRLPLTLAILDGLIVAVEAVNYVIPLTYIVESLQARSDDVRGLGGEDNAMIRVRGEYLPLFSLHELLRIGGEAPAPEQGIVVILESEGRSFALQVDELVGQQQVVIKSLEQNFRRVEGIAGATIMGDGSVALILDVDALPRLAAREDTADE”, the “soluble on expression in E. coli” value was “not soluble”. With “MQAWIQQGLHGMQMGGRVGNYDQTFVVYGPVFLPNATQSKISEINYGGKILLPSSALNLLMQYNIPMPMLFKLTNMAVQRVTHCGVLEFSAPEGQAILPLWMMQQLGLDDGDTIRIESATLPKATFAKLKPMSLEFLNITNPKAVLEVELRKYACLTKNDRIPTSYAGQTLEFLVVDLKPANSVCIIECDVNLDFDPPEGYVEQPRQVTPAVTAKPPAPDASAFIGAGQKAGGSGGTGQNATSVFGGAGRRLDGKKKPSSSVSLSDGTGVSTSNAAPVANDLPAIPPVVVNEDYKPGRVSFLRYDYKRVDVLEKELREKEASKAGQPSNVFRGGNRTLRGAR” the “soluble on expression in E. coli” value was “not soluble”. With “MGSDKIHHHHHHMAVGKNNNKMGKKGGKKKAVDPFSRKEWYDIKAPNMFNTRQVGKTLINRTQGTKIASEGLKGRVFEVSLGDLNNSEADFRKFKLIAEDVQGKNVLTNFHAMSMTHDKLCSIVKKWHTLIEANTAVKTTDGYTLRVFVIAFTKKSVNQVKKTSYTKTSKIRKIRSEMIGCIEKEVTGCDLKEVVSKLIPDSIGKDIEKTCSKLYPLQEVYIRKVKIIKRPKVDLGRLHDLHGDSITVGADGEKVDRPDDYEPPVQQEV” the “soluble on expression in E. coli” value was “not soluble”. With “MMQPVIRKNHMDIAWHEYTDENGADIPVTQASLTEKASIIGRVGIMFLSCGTGAWRVRSSMNTLAEIMGITCTADIGLMSIEYTCFDGEEGFTQSLCLTNTGVNTSKLNRLEHFIREFEIDGKDMSGEELHTLLDDIER” the “soluble on expression in E. coli” value was “not soluble”. With “MGSDKIHHHHHHMRTSLLYKIKEEERILPSKNLKGNEIIFILAFPDIYKYGLPNLGIQTLYKELYLRDDVAVDRYYTDEDQPFSFEYGFKLKDSDFIGISFQYEGIVLNAFKILKAGSIPLINLLREENDPIIIGGGPVANYNPLPLSLVCDVIVLGEAEEAIHKIIDSYKVYRNVKRKRMKFLQAVSQIEGIYVPCIHGFFQTGMVKQTSPVDINEHPAHSIFVTKNTVYEERVFSIEVRRGCTQRCRFCYMGHRLKPPRTLRWETFKKIVDLAIDQCNVEIIKLFYEGLETRIVEHYLEYIIKKGGRVRIGSQRLEKLSKRIIEIAAISGQRKITVAPETSGRLRKVIGKHEIKDEEILEVVRISSLYGIPDFGLYFILAIPGETFEDLDKIADLIMKVRHQMNKLKNTDGRLEIGINPLYPKPFTPFQYVKLPSLKNIEDRFLYIVEKVKKEGFPVVISNDVVDEKVEKRQKDENENESLVKFETTVFHPISLLQPMISRGGLEIAFLLHYLHSKRFNTVSDLENLLNEFGINAAWYFEEYIDKYCPWKIQKTLISEDYLLKEYFKALNFISTDEECKLNCSQCFNRCIDISTTNYQGGMSNA” the “soluble on expression in E. coli” value was “not soluble”.
